Measurements as given in patent US20200188539A1 (CURATORS OF THE UNIVERSITY OF MISSOURI, published 2020).
Square brackets hold non-standard residues; d marks the D form. * marks the point of attachment. DUPA = PSMA-binding small-molecule urea, O=C(O)CC[C@H](NC(=O)N[C@@H](CCC(=O)*)C(=O)O)C(=O)O; DOTA = O=C(O)CN1CCN(CC(=O)O)CCN(CC(=O)*)CCN(CC(=O)O)CC1; Sta = CC(C)C[C@H](N)[C@@H](O)CC(=O)O; 4Abz = Nc1ccc(C(=O)O)cc1; Ahx = NCCCCCC(=O)O; Ava = NCCCCC(=O)O

What was measured:
[1] = target: prostate specific membrane antigen (human (human prostate LNCaP cells), UniProt Q04609 1-750); experiment: cell-based or functional assay
[2] = target: T1, gastrin-releasing peptide receptor (human (human prostate PC-3 cells), UniProt P30550 1-384); experiment: competitive displacement of 125I-(Tyr4)-BBN on GRPR-positive PC-3 cells
T1 construct: whole, on cells; Endogenous receptor on PC-3 cells; also called GRPR; GRPr
Procedure: (§1) (NAAG) as the radioligands. For the GRPR-positive assay, 3×10⁴ PC-3 cells (in D-MEM/F-12 K media containing 0.01 M MEM and 2% BSA, pH=5.5) were incubated with 20,000 counts per minute of [¹²⁵I-(Tyr4)-BBN] and increasing concentrations (1×10⁻¹³-1×10⁻⁵ M) of the metallated targeting vector (1 h, 37° C., 5% CO₂-enriched atmosphere). After incubation, the reaction medium was aspirated and the cells were rinsed three times with cold media. Cell-associated radioactivity was determined using a Packard Riastar gamma counter. The percent of bound radioligand was plotted against the increasing concentrations of the metallated conjugate to determine the IC₅₀ value. IC₅₀ values were determined by curve fitting using Prism Software (version 6.0). For the PSMA-positive assay, the binding affinity was measured using the N-acetylated-α-linked acidic dipeptidase (NAALADase) assay. […] (increasing concentrations 1×10⁻¹³-1×10⁻⁵ M) in 50 μL of Tris-HCl buffer (50 mM, pH=7.4) were incubated with LNCaP tissue culture homogenized cell membranes for a period of 45 min. Then, [N-acetyl aspartyl ³H-glutamate] was added to the reaction mixture and the solution was allowed to incubate for an additional 15 min at 37° C. The enzymatic reaction was stopped by addition of 50 μL of cold sodium phosphate buffer (0.1 M, pH=7.4). [N-acetyl aspartyl ³H-glutamate] and [³H-glutamate] were resolved by cation exchange chromatography using AG 50 W-X8 columns (200-400 mesh). Columns were pre-equilibrated with 0.2 M HCl prior to loading of the reaction mixture. Fractions containing [³H-glutamate] were eluted using 6 mL of 2 M HCl. Scintillation cocktail was added to each fraction and the amount of radioactivity in each was determined by liquid scintillation counting. The percent of bound radioligand was plotted against the increasing concentrations of the conjugate to determine the IC₅₀ value. IC₅₀ values were determined by curve fitting using Prism Software (version 6.0).

[3] = target: T1, gastrin-releasing peptide receptor; experiment: competitive displacement of 125I-[Tyr4]BBN on human prostate PC-3 cells (FIG. 2)
Procedure: as §1, with “6.0).” for “6.0). For the PSMA-positive assay, the binding affinity was measured using the N-acetylated-α-linked acidic dipeptidase (NAALADase) assay.”, “[N-acetyl aspartyl ³H-glutamate] and [³H-glutamate] were resolved by cation exchange chromatography using AG 50 W-X8 columns (200-400 mesh). Columns were pre-equilibrated with 0.2 M HCl prior to loading of the reaction mixture. Fractions containing [³H-glutamate] were eluted using 6 mL of 2 M HCl.” left out, “The percent of bound radioligand was plotted against the increasing concentrations of the conjugate to determine the IC₅₀ value.” left out

Chain of prostate specific membrane antigen (Q04609 whole entry): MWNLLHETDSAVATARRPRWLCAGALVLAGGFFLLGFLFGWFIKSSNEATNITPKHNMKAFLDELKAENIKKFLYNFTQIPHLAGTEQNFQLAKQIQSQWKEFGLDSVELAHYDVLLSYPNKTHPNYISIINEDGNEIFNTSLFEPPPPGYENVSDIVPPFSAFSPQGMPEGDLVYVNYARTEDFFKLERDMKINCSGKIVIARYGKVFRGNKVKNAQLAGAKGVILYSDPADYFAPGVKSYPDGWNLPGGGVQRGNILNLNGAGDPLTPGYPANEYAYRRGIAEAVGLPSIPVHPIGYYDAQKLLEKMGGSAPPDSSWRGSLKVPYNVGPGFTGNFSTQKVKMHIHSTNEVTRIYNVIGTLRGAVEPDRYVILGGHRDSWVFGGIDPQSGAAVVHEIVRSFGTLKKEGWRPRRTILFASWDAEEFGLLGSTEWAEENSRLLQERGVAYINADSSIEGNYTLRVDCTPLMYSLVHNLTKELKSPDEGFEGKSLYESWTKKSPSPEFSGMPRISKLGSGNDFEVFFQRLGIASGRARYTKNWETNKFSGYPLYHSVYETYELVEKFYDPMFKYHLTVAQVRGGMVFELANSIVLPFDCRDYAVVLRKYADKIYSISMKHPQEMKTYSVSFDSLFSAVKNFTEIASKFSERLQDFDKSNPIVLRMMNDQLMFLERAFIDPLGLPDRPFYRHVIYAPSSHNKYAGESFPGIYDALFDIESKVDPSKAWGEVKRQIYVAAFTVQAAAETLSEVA
T1 sequence (P30550 whole entry): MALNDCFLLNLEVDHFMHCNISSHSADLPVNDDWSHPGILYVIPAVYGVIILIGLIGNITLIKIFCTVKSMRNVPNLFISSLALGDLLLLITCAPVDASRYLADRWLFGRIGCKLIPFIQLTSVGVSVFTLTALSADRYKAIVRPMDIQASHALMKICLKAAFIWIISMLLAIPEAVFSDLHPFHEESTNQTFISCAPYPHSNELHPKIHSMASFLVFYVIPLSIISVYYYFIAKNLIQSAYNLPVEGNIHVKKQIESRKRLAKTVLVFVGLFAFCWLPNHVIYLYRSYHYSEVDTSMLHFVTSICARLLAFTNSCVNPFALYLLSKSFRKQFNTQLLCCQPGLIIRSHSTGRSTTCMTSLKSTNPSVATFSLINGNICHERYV

Binder	IC50 LNCaP cells (NAALADase assay, [N-acetyl aspartyl 3H-glutamate] substrate, LNCaP homogenized cell membranes) [1] [nM]	IC50 [2] [nM]	IC50 [3] [nM]
{DUPA-Ahx}-K(DOTA)[Ahx][dF]QWAVGH[Sta]L-NH2 (SMILES CC(C)C[C@H](NC(=O)C[C@H](O)[C@H](CC(C)C)NC(=O)[C@H](Cc1c[nH]cn1)NC(=O)CNC(=O)[C@@H](NC(=O)[C@H](C)NC(=O)[C@H](Cc1c[nH]c2ccccc12)NC(=O)[C@H](CCC(N)=O)NC(=O)[C@@H](Cc1ccccc1)NC(=O)CCCCCNC(=O)[C@H](CCCCNC(=O)CN1CCN(CC(=O)O)CCN(CC(=O)O)CCN(CC(=O)O)CC1)NC(=O)CCCCCNC(=O)CC[C@H](NC(=O)N[C@@H](CCC(=O)O)C(=O)O)C(=O)O)C(C)C)C(N)=O, Unmetallated bivalent conjugate; also called [DUPA-6-Ahx-[DOTA]-6-Ahx-RM2]; [DUPA-6-Ahx-Lys[DOTA]-X-RM2], X=6-Ahx) [[DUPA-6-Ahx-Lys(DOTA)-6-Ahx-RM2]]	–	3.85	3.99
{DUPA-Ahx}-K(DOTA)[4Abz][dF]QWAVGH[Sta]L-NH2 (Unmetallated bivalent conjugate; also called [DUPA-6-Ahx-Lys[DOTA]-X-RM2], X=AMBA) [[DUPA-6-Ahx-[DOTA]-AMBA-RM2]]	–	5.27	–

Further lines, results first:

IC50 LNCaP cells (NAALADase assay, [N-acetyl aspartyl 3H-glutamate] substrate, LNCaP homogenized cell membranes) [1] [nM]	IC50 [2] [nM]	IC50 [3] [nM]	Binder
14.4	–	–	{DUPA-Ahx}-K(DOTA)[Ava][dF]QWAVGH[Sta]L-NH2 (also: DOTA complexed with natural indium) [[DUPA-6-Ahx-[^natIn-DOTA]-5-Ava- RM2]]
14.9	–	–	{DUPA-Ahx}-K(DOTA)[4Abz][dF]QWAVGH[Sta]L-NH2 (also: DOTA complexed with natural indium) [[DUPA-6-Ahx-[^natIn-DOTA-AMBA-RM2]]
11.2	5.14	–	{DUPA-Ahx}-K(DOTA)[Ava][dF]QWAVGH[Sta]L-NH2 (Unmetallated bivalent conjugate; also called [DUPA-6-Ahx-Lys[DOTA]-X-RM2], X=5-Ava; [DUPA-6-Ahx-Lys(DOTA)-X-RM2] formula (I), X=5-aminovaleric acid) [[DUPA-6-Ahx-[DOTA]-5-Ava-RM2]]
